The assay concerns the target T1, CSF-1R (Mus musculus, UniProt P09581).
T1 construct: from tissue; host or cells: mouse spleen, in vivo
T1 sequence (P09581 20-977): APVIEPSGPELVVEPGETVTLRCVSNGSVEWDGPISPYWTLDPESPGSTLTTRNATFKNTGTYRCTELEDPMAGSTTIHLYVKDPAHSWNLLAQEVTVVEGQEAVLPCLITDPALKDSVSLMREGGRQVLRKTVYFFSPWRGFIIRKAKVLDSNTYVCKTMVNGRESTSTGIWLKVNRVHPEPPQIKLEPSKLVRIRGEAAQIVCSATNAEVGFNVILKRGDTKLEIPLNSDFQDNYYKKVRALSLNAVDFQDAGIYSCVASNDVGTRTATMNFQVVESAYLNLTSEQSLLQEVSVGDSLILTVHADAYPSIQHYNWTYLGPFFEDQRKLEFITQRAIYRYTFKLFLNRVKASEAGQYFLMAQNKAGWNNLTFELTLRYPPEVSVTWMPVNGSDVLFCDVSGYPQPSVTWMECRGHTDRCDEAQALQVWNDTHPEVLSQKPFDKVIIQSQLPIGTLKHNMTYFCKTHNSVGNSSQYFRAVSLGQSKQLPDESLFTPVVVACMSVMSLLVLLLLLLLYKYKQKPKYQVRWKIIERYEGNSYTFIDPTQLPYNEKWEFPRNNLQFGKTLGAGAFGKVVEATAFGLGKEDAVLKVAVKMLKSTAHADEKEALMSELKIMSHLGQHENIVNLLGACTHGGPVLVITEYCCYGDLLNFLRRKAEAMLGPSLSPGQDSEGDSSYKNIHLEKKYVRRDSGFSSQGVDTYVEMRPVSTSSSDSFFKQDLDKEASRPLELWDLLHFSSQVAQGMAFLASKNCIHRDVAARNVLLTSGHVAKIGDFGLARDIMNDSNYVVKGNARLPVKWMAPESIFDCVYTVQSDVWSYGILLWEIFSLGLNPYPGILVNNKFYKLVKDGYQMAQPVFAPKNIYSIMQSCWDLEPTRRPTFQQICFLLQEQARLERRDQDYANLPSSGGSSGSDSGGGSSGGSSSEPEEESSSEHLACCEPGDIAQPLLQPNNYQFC
Briefly: In vivo pharmacodynamic model: CSF-1-induced splenic c-fos mRNA. Here is the method:
Eight hours later, mice were administered saline or 0.8 μg recombinant mouse CSF-1 (Cell Biosciences Inc, Norwood, Mass.) via the tail vein. Fifteen minutes after the tail vein injection, mice were sacrificed and spleens were isolated and snap frozen on dry ice. The frozen tissue was homogenized in 1 ml of Trizol (Invitrogen) per 50 mg of tissue, and RNA was purified according to the Trizol instructions and treated with 6.8 Kunitz units of RNase-free DNase (Qiagen, Valencia, Calif.) to degrade contaminating genomic DNA. The RNA was purified further using RNeasy columns (Qiagen). RT-PCR was performed in 25 μL reaction volumes using Reverse Transciptase qPCR Master Mix (Eurogentec) and approximately 50 ng RNA. Applied Biosystems, Inc., (Foster City, Calif.) was the source for the primer probe set for mouse c-fos mRNA (part# Mm00487425) and 18S rRNA (part# 4333760F). Amplification and detection were performed using the ABI Prism 7000 Sequence Detector system. Standard curves were created for c-fos mRNA and for 18s rRNA using RNA isolated from a vehicle-treated, CSF-1-induced mouse and used to calculate relative expression levels in all other samples. c-fos mRNA values were normalized to 18S rRNA content. Averaged, normalized c-fos content in the saline (no CSF-1) group was assigned a value of one and all other groups were expressed as “fold-induced”.

B1: CSF-1: recombinant mouse CSF-1 (Cell Biosciences Inc), given via the tail vein as challenge (protein, UniProt P07141 33-552, looked up)
Macrophage colony-stimulating …: KEVSEHCSHMIGNGHLKVLQQLIDSQMETSCQIAFEFVDQEQLDDPVCYLKKAFFLVQDIIDETMRFKDNTPNANATERLQELSNNLNSCFTKDYEEQNKACVRTFHETPLQLLEKIKNFFNETKNLLEKDWNIFTKNCNNSFAKCSSRDVVTKPDCNCLYPKATPSSDPASASPHQPPAPSMAPLAGLAWDDSQRTEGSSLLPSELPLRIEDPGSAKQRPPRSTCQTLESTEQPNHGDRLTEDSQPHPSAGGPVPGVEDILESSLGTNWVLEEASGEASEGFLTQEAKFSPSTPVGGSIQAETDRPRALSASPFPKSTEDQKPVDITDRPLTEVNPMRPIGQTQNNTPEKTDGTSTLREDHQEPGSPHIATPNPQRVSNSATPVAQLLLPKSHSWGIVLPLGELEGKRSTRDRRSPAELEGGSASEGAARPVARFNSIPLTDTGHVEQHEGSSDPQIPESVFHLLVPGIILVLLTVGGLLFYKWKWRSHRDPQTLDSSVGRPEDSSLTQDEDRQVELPV
For B1, the “ED50 of splenic c-fos mRNA induction” value (intravenous recombinant CSF-1) was “ca. 0.8 μg/mouse”. The “induction of splenic c-fos mRNA” value (intravenous recombinant CSF-1, within fifteen minutes) is on record as 10- to 50 fold.
